Test results: publication PMC2198949 (The Journal of Experimental Medicine, 1997)

Biological target: T1, murine 4-1BBL–CD8 fusion protein (mouse, UniProt P41274 104-309)
T1 sequence (looked up): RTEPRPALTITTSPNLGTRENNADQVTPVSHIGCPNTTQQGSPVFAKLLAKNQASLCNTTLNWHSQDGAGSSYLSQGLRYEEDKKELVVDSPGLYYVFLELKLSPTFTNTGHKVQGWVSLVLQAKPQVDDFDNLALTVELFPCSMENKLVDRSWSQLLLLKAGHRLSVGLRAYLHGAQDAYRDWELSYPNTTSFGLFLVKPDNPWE
Experiment: SPR

B1: murine 4-1BB–Ig fusion protein (Fc fusion, mouse, UniProt P20334 22-185, looked up)
chain: GAVQNSCDNCQPGTFCRKYNPVCKSCPPSTFSSIGGQPNCNICRVCAGYFRFKKFCSSTHNAECECIEGFHCLGPQCTRCEKDCRPGQELTKQGCKTCSLGTFNDQNGTGVCRPWTNCSLDGRSVLKTGTTEKDVVCGPPVVSFSPSTTISVTPEGGPGGHSLQ
  Kd: 1.16 nM
  koff: 0.000213 s⁻¹
  kon: 183000 M⁻¹ s⁻¹
